From patent US9089565B2, “Compositions and methods for causing neurite outgrowth” (MEDICAL RESEARCH COUNCIL, priority 2009, dated 2015)

What was measured:
[1] = target: T1, NgR1 (Homo sapiens, UniProt Q9BZR6); test: Binding of Nogo-66 fragment (Nogo-GFP) to COS7 cells over-expressing NgR1; details: wild type NgR1
T1 construct: The cDNAs of NgR1 (NM 023004, Nt. 184-1543); expressed in transfected cells; host or cells: COS7
T1 sequence (Q9BZR6 27-447): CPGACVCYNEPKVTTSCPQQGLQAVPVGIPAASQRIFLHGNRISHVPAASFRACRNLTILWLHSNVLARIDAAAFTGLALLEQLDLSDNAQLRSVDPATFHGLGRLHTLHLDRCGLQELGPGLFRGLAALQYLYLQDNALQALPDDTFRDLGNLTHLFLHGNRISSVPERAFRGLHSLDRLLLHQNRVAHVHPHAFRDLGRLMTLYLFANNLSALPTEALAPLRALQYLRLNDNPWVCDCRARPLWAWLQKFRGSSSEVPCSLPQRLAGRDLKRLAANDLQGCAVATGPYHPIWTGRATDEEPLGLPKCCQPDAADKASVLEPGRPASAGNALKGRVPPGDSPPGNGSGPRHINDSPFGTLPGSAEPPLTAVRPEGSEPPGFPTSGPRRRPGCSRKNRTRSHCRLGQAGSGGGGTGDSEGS
Description: FIG. 3. CK2 phosphorylates NgR1, and inhibits binding of the myelin-associated proteins to NgR1. (A) Myc-tagged wild type, 281S/A or 281S/D mutant NgR1 were over-expressed in COS7 cells. The over-expressed cells were incubated with either the combination of ATP and CK2, or NEP1-40 for 30 min at 37° C. After washing with PBS, cells were incubated with Hisx6-tagged Nogo-GFP for 3 hours at 4° C. The cells were fixed and immunofluorescence was performed with anti-Myc and anti-GFP antibodies. (B) COS7 cells over-expressing Myc-tagged wild type NgR1 were treated as described in (A). Proteins were extracted and the Myc-tagged NgR1 was immunoprecipitated with anti-Myc antibody. Co-precipitated Hisx6-tagged Nogo-GFP was detected by anti-GFP antibody. (C) Cell surface proteins in NgR1-overexpressing COS7 cells were labelled with biotin. The biotinylated proteins were fractionated and analysed by SDS-PAGE. Biotinylated NgR1-Myc was detected with anti-Myc. antibody. (D) COS7 cells over-expressing either wild type NgR1-Myc or 281S/A mutant NgR1-Myc were incubated with ã-^32P-ATP in the presence or absence of CK2. Myc-tagged proteins were immunoprecipitated and analysed with SDS-PAGE. Proteins were blotted onto a PVDF membrane and the membrane was exposed to X-ray film to detect incorporated ^32P. After autoradiography, the membrane was used for immunoblotting with anti-Myc antibody. (E and F) COS7 cells over-expressing Myc-tagged wild type, 281S/A or 281S/D mutant NgR1, were treated as described in (A). After washing with PBS, cells were incubated with either His-tagged OMgp (E) or HA-tagged MAG (F) for 3 hours at 4° C. […]
After treatment with or without CK2, COS7 cells over-expressing wild type or mutant NgR were incubated with Hisx6 tagged Nogo-GFP (10 μg/ml), HA-MAG (50 μg/ml) or Hisx6 tagged OMgp (10 μg/ml) in PBS for 3 hours at 4° C. […] Biotinylated proteins were precipitated with streptavidin beads and were analysed by SDS-PAGE. Each sample fractionated from 5×10^6 cells was analysed by SDS-PAGE. […]

[2] = tested on: Nogo-A, LINGO-1; test: Immunoblotting of Nogo-A and LINGO-1 in RA-treated SH-SY5Y cells; assay type: cell-based, human; details: after BDNF treatment 24 hours
Description: FIG. 1. BDNF promotes neurite outgrowth of RA-treated SH-SY5Y, and induces phosphorylation of NgR1. (A) SH-SY5Y cells were incubated with indicated reagents. Cell images were taken with phase contrast microscopy. (B) Number of cells extending neurite-like structures of more than 40 μm and total cell number were counted from images taken in (A). More than 300 cells were examined in each sample. The proportion of cells extending neurite-like structures of more than 40 μm was indicated as a percentage of total cell number. An average of three experiments is shown. Error bars indicate S. E. between experiments. Data were analysed with student's t test. (C) Whole cell extracts were prepared from RA-treated SH-SY5Y cells after incubation with or without BDNF for 24 hours, and were analysed by SDS-PAGE. Immunoblotting was performed with the indicated antibodies. (D) Whole cell extract prepared from cells treated with both RA and BDNF was incubated with the indicated reagents for 1 hour at 37° C. […] Whole cell extracts prepared from these cells were analysed by SDS-PAGE. […]
Cells were scraped off from dishes and washed with PBS twice, and then resuspended in PBS containing 0.1% Triton X100 and phosphatase inhibitor cocktail (Roche) and EDTA-free protease inhibitor cocktail (Roche). […] The supernatants containing 30 μg of proteins were analysed by SDS-PAGE and blotted to PVDF membrane. […]

`Nc1ncnc2c1ncn2[C@@H]1O[C@H](COP(=O)(O)OP(=O)(O)OP(=O)(O)O)[C@@H](O)[C@H]1O` [ATP] was tested. Which “interaction of Nogo-66 fragment with over-expressed NgR1, immunoprecipitation” value ([1]; ATP or CK2 alone) did it give?
The value was “failed to inhibit the interaction”.

With “NEP1-40: a competitive inhibitor of Nogo-66 binding to NgR1 (MEDLDQSPLVSSSDSPPRPQPAFKYQFVREPEDEEEEEEE; Nogo-66 residues 1-40; UniProt Q9NQC3 1-40, looked up, fragment) [reference compound]” as the molecule, how does the “binding of the Nogo-66 fragment, immunofluorescence” value ([1]; pre-treatment 30 min (CK2 with ATP, or NEP1-40)) read?
Its value is “inhibited binding”.

B1: BDNF: brain-derived neurotrophic factor, member of the neurotrophin nerve growth factor family, purchased from Merck (protein, UniProt P23560 19-247, looked up)
Neurotrophic factor BDNF …: APMKEANIRGQGGLAYPGVRTHGTLESVNGPKAGSRGLTSLADTFEHVIEELLDEDQKVRPNEENNKDADLYTSRVMLSSQVPLEPPLLFLLEEYKNYLDAANMSMRVRRHSDPARRGELSVCDSISEWVTAADKKTAVDMSGGTVTVLEKVPVSKGQLKQYFYETKCNPMGYTKEGCRGIDKRHWNSQCRTTQSYVRALTMDSKKRIGWRFIRIDTSCVCTLTIKRGR
How did the “Nogo-A and LINGO-1 protein levels” value [2] turn out when B1 was run?
Its value is “neither Nogo-A nor LINGO-1 showed significant changes”.
